Results taken from paper PMC9482650, “Quantitative fragmentomics allow affinity mapping of interactomes” (Nature Communications, 2022).

T1: DFNB31_1, Q9P202
T1 sequence (Q9P202 135-233, limits assumed, looked up): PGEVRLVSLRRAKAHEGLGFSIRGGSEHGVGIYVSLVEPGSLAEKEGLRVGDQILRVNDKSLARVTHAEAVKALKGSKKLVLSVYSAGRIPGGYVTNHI

T2: DLG3_2, Q92796
T2 sequence (Q92796 221-321, limits assumed, looked up): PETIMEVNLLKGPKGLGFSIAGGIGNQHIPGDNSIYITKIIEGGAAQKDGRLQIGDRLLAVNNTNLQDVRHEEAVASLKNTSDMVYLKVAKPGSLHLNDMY

T3: HTRA4, P83105
T3 sequence (P83105 378-476, limits assumed, looked up): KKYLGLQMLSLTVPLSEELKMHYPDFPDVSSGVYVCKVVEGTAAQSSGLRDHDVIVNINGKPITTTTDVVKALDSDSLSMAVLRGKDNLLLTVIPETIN

T4: LIN7B, Q9HAP6
T4 sequence (Q9HAP6 88-185, limits assumed, looked up): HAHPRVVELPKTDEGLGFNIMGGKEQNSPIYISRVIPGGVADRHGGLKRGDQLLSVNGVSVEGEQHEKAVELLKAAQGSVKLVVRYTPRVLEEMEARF

T5: MPDZ_10, O75970
T5 sequence (O75970 1624-1722, limits assumed, looked up): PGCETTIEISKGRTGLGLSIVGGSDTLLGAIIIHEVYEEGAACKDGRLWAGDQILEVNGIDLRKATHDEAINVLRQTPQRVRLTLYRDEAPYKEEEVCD

T6: NHERF3_1, Q5T2W1
T6 sequence (Q5T2W1 4-100, limits assumed, looked up): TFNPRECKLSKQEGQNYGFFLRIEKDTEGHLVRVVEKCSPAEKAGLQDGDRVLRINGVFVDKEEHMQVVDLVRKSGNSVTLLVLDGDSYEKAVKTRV

T7: RAPGEF6, Q8TEU7
T7 sequence (Q8TEU7 525-625, limits assumed, looked up): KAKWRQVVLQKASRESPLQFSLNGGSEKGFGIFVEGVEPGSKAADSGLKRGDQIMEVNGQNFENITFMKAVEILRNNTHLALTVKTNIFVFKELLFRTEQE

T8: SNTA1, Q13424
T8 sequence (Q13424 82-180, limits assumed, looked up): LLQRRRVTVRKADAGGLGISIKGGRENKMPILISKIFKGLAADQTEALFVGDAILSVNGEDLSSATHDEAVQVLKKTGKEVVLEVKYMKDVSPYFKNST

T9: SNTG1, Q9NSN8
T9 sequence (Q9NSN8 52-150, limits assumed, looked up): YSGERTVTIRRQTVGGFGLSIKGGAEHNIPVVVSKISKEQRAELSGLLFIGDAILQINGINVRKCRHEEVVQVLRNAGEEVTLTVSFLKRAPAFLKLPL

T10: SNTG2, Q9NY99
T10 sequence (Q9NY99 68-166, limits assumed, looked up): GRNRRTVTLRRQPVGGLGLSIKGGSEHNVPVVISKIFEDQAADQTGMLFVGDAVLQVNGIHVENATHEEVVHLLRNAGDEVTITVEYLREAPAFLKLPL

T11: TIAM2, Q8IVF5
T11 sequence (Q8IVF5 885-986, limits assumed, looked up): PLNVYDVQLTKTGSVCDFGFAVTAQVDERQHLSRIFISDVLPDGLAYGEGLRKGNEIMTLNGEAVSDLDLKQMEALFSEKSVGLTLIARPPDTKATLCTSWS


What was measured:
Experiment in all cases: holdup assay
Set-up in all cases: key: below the threshold = too weak to quantify, mostly under pKd 3.1 to 4
Conditions in all cases: plain residues with an end cap or a label only (N-terminal biotin on a linker: ado-ado)
CASK, O14936 = biological target: CASK, O14936
DFNB31_1, Q9P202 = biological target: T1, DFNB31_1, Q9P202
DLG3_2, Q92796 = biological target: T2, DLG3_2, Q92796
DLG4_3, P78352 = biological target: DLG4_3, P78352
DLG5_1, Q8TDM6 = biological target: DLG5_1, Q8TDM6
FRMPD2_2, Q68DX3 = biological target: FRMPD2_2, Q68DX3
GOPC, Q9HD26 = biological target: GOPC, Q9HD26
GORASP2, Q9H8Y8 = biological target: GORASP2, Q9H8Y8
GRIP2_5, Q9C0E4 = biological target: GRIP2_5, Q9C0E4
HTRA4, P83105 = biological target: T3, HTRA4, P83105
IL16_1, Q14005 = biological target: IL16_1, Q14005
IL16_4, Q14005 = biological target: IL16_4, Q14005
Inadl_8, Q8NI35 = biological target: Inadl_8, Q8NI35
LIMK2, P53671 = biological target: LIMK2, P53671
LIN7B, Q9HAP6 = biological target: T4, LIN7B, Q9HAP6
MPDZ_10, O75970 = biological target: T5, MPDZ_10, O75970
NHERF3_1, Q5T2W1 = biological target: T6, NHERF3_1, Q5T2W1
NOS1, P29475 = biological target: NOS1, P29475
PARD3_3, Q8TEW0 = biological target: PARD3_3, Q8TEW0
PDLIM1, O00151 = biological target: PDLIM1, O00151
RAPGEF6, Q8TEU7 = biological target: T7, RAPGEF6, Q8TEU7
SCRIB_1, Q14160 = biological target: SCRIB_1, Q14160
SNTA1, Q13424 = biological target: T8, SNTA1, Q13424
SNTG1, Q9NSN8 = biological target: T9, SNTG1, Q9NSN8
SNTG2, Q9NY99 = biological target: T10, SNTG2, Q9NY99
TIAM2, Q8IVF5 = biological target: T11, TIAM2, Q8IVF5

DLG4_3, P78352, sequence (P78352 306-403): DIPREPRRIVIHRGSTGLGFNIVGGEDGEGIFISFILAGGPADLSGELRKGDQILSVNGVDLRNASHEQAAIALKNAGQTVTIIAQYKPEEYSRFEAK
PDLIM1, O00151, sequence (O00151 1-87): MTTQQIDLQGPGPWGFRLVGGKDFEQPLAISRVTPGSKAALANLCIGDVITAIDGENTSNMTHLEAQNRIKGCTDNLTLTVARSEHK
IL16_4, Q14005, sequence (Q14005 1229-1329): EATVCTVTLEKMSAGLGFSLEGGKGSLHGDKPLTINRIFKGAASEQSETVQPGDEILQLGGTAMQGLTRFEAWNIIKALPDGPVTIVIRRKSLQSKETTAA
Inadl_8, Q8NI35, sequence (Q8NI35 1425-1530): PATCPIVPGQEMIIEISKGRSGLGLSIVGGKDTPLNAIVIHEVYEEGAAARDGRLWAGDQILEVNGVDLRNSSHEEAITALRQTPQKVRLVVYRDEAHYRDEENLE
LIMK2, P53671, sequence (P53671 143-248): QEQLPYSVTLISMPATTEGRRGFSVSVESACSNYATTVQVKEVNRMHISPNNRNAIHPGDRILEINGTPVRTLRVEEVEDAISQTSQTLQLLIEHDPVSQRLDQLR
NOS1, P29475, sequence (P29475 9-101): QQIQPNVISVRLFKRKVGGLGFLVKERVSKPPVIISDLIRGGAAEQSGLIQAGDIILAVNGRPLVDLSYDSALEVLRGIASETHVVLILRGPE
SCRIB_1, Q14160, sequence (Q14160 718-814): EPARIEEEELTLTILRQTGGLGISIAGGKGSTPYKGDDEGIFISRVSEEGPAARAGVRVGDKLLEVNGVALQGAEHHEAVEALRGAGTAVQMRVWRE
DLG5_1, Q8TDM6, sequence (Q8TDM6 617-713): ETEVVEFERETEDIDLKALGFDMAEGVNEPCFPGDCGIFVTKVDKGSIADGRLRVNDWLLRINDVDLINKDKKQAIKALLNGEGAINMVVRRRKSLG
FRMPD2_2, Q68DX3, sequence (Q68DX3 944-1038): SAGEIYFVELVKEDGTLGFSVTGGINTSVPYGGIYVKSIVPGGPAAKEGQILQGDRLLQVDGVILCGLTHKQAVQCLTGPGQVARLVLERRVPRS
GRIP2_5, Q9C0E4, sequence (Q9C0E4 544-642): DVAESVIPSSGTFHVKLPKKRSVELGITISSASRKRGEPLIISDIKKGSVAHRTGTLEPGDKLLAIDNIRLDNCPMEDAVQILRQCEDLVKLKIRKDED
IL16_1, Q14005, sequence (Q14005 210-306): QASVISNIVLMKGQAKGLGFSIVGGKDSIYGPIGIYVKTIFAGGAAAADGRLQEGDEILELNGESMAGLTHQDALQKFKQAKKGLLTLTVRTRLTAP
CASK, O14936, sequence (O14936 487-570): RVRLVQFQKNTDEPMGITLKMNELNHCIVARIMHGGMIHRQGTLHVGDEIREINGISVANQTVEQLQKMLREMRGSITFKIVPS
PARD3_3, Q8TEW0, sequence (Q8TEW0 582-685): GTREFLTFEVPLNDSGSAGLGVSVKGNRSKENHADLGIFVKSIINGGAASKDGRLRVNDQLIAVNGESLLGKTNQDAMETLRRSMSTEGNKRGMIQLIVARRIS

pKd (CASK, O14936) | pKd (DFNB31_1, Q9P202) | pKd (DLG3_2, Q92796) | pKd (DLG4_3, P78352) | pKd (DLG5_1, Q8TDM6) | pKd (FRMPD2_2, Q68DX3) | pKd (GOPC, Q9HD26) | pKd (GORASP2, Q9H8Y8) | pKd (GRIP2_5, Q9C0E4) | pKd (HTRA4, P83105) | pKd (IL16_1, Q14005) | pKd (IL16_4, Q14005) | pKd (Inadl_8, Q8NI35) | pKd (LIMK2, P53671) | pKd (LIN7B, Q9HAP6) | pKd (MPDZ_10, O75970) | pKd (NHERF3_1, Q5T2W1) | pKd (NOS1, P29475) | pKd (PARD3_3, Q8TEW0) | pKd (PDLIM1, O00151) | Binder | further results
below the threshold | 3.67 | 5.27 | 3.78 | below the threshold | 3.85 | below the threshold | below the threshold | below the threshold | below the threshold | 4.55 | below the threshold | 3.58 | below the threshold | 4.12 | below the threshold | 3.82 | 3.96 | below the threshold | 3.75 | RRISSLESEV [GRIN2C, Q14957] | pKd (RAPGEF6, Q8TEU7): below the threshold; pKd (SCRIB_1, Q14160): 4.69; pKd (SNTA1, Q13424): 4.53; pKd (SNTG1, Q9NSN8): 5.11; pKd (SNTG2, Q9NY99): 4.24; pKd (TIAM2, Q8IVF5): 4.13
below the threshold | below the threshold | below the threshold | below the threshold | below the threshold | below the threshold | below the threshold | 5.55 | below the threshold | 4.68 | below the threshold | below the threshold | below the threshold | below the threshold | below the threshold | below the threshold | below the threshold | below the threshold | 3.97 | below the threshold | YNNCLEILRV [DCAF7, P61962] | pKd (RAPGEF6, Q8TEU7): below the threshold; pKd (SCRIB_1, Q14160): below the threshold; pKd (SNTA1, Q13424): below the threshold; pKd (SNTG1, Q9NSN8): below the threshold; pKd (SNTG2, Q9NY99): below the threshold; pKd (TIAM2, Q8IVF5): 4.04
below the threshold | below the threshold | 4.18 | below the threshold | below the threshold | below the threshold | below the threshold | 3.55 | below the threshold | below the threshold | below the threshold | below the threshold | below the threshold | below the threshold | 3.64 | below the threshold | below the threshold | below the threshold | below the threshold | below the threshold | RRLPGKETMA [GRIK2, Q13002] | pKd (RAPGEF6, Q8TEU7): 3.53; pKd (SCRIB_1, Q14160): below the threshold; pKd (SNTA1, Q13424): below the threshold; pKd (SNTG1, Q9NSN8): below the threshold; pKd (SNTG2, Q9NY99): below the threshold; pKd (TIAM2, Q8IVF5): 3.97
